Laboratory results from article PMC4715492.

Biological target: 2xMyc‐PAK6 (p21‐activated kinase 6) (human) (UniProt Q9NQU5)
Assay: co-IP; lysates of HEK293T cells co-transfected with Flag-LRRK2 and Myc-PAK6 or Myc-14-3-3; immunoprecipitation with anti-Flag or with anti-Myc; washes in lysis buffer (50 mM Tris pH 7.5, 1% Triton X-100) with 0.25 M NaCl; immunoblot

UniProt Q9NQU5, sequence (Q9NQU5 whole entry): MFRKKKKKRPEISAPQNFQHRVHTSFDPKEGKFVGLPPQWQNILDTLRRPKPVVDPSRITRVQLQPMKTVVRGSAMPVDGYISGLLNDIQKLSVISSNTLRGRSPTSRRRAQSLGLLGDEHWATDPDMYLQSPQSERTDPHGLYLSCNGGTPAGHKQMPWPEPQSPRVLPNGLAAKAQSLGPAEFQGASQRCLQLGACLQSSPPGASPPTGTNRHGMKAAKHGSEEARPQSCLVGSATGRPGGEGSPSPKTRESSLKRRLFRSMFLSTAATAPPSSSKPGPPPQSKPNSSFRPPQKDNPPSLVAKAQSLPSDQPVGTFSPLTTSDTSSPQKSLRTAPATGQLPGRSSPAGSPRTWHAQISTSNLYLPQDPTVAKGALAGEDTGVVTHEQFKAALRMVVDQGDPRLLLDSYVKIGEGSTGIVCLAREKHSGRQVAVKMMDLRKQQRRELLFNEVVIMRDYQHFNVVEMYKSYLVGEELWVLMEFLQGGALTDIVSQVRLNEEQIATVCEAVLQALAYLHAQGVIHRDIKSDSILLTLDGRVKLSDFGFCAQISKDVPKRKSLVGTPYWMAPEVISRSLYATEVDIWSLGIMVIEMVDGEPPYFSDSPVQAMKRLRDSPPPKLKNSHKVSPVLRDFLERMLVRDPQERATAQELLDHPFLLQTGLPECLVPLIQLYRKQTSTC

## 3xFlag‐LRRK2 wild type, Q5S007 1-2527
  fold of LRRK2 bound, against 2xMyc‐14‐3‐3 zeta: 3.5 fold
